Experimental findings from patent US20250179143A1 (CHILDREN S HOSPITAL OF PHILADELPHIA, published 2025) are described below.

Where a chain is given by its changes, count along the chain named. In names and notes the source's numbering stands.

The target in assay [1] is HLA-A*01:01/hb2m/STAPGJLEY (peptide-loaded) (human). Kind of assay: cell-based or functional assay.
Assay [2] concerns the target HLA-A*02:01/hb2m/KILGFVF(bF)V (human). Kind of assay: cell-based or functional assay.
For assay [3], the target named is HLA-A*02:06/hb2m/KILGFVF(bF)V (human). Description: cell-based or functional assay.
Assay [4] deals with HLA-A*02:01/hb2m/KILGFVFJV (peptide-loaded) (human). Description: SPR, peptide-loaded HLA-A*02:01.

B1: hTAPBPR^RQ (K211R, R270Q) (other)
chain: KPHPAEGQWRAVDVVLDCFLAKDGAHRGALASSEDRARASLVLKQVPVLDDGSLEDFTDFQGGTLAQDDPPIIFEASVDLVQIPQAEALLHADCSGKEVTCEISRYFLQMTETTVKTAAWFMANMQVSGGGPSISLVMKTPRVTKNEALWHPTLNLPLSPQGTVRTAVEFQVMTQTQSLSFLLGSSASLDCGFSMAPGLDLISVEWRLQHRGRGQLVYSWTAGQGQAVRKGATLEPAQLGMARDASLTLPGLTIQDEGTYICQITTSLYQAQQIIQLNIQASPKVRLSLANEALLPTLICDIAGYYPLDVVVTWTREELGGSPAQVSGASFSSLRQSVAGTYSISSSLTAEPGSAGATYTCQVTHISLEEPLGASTQVVPPERR
notes: domain: luminal domain; As m1
Regarding B1, the “kapp of fluorescent peptide binding at 5 uM chaperone (FP)” value in assay [1] is 0.00014 s⁻¹. The “k2overall, fold against hTAPBPR” value in assay [2] is ~60 fold; in assay [3], ~9 fold. The “fold lower KD than hTAPBPR” value in assay [4] is ~7 fold.

B2: hTAPBPR^KRQ (R105K, K211R, R270Q) (other)
chain: B1 chain with R105K
notes: domain: luminal domain; As m1
For the molecule B2, in assay [1], the “kapp of fluorescent peptide binding at 5 uM chaperone (FP)” value was found to be 0.00013 s⁻¹. In addition, the “k2overall, fold against hTAPBPR” value in assay [2] was ~60 fold; in assay [3], ~9 fold. Besides, the “fold lower KD than hTAPBPR” value in assay [4] is ~7 fold.
